Laboratory results published in US20110150888A1 (Amgen, published 2011).
Where no end group is shown, it is not given here.

T1: mouse hepcidin (mouse, UniProt Q9EQ21 59-83)
T1 peptide (looked up): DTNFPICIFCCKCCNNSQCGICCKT

B1: antibody 1S3 (antibody, human IgG2, lambda, V domains shown)
VH: QVQLVESGGGVVQPGRSLRLSCAASGFTFSSYGMHWVRQAPGKGLEWVAVIWYAESNKYYADSVKGRFTISRDNSKNTLYLQMNSLRAEDTAVYYCARAQEGIAPDAFDIWGQGTMVTVSS
VL: YELTQPPSVSVSPGQTATITCSGDKLGERYASWYQQRPGQSPVLVIYQDIKRPSGIPERFSGSNSGNTATLTISGTQAMDEADYFCQAWYSSTNVLFGGGTKLTVLG
notes: Human antibody
B2: murine antibody 2.7 (antibody, V domains shown)
VH: QIQLVQSGPELKKPGETVKISCKASGYTFTTYGMSWVKQAPGKGLKWMGWINTYSGVPTYADDFKGRFAFSLETSASTAYLQINNLKNEDTATYFCGRDHYYGEVAYWGQGTLVTVSA
VL: DIVLTQSPASLAVSLGQRATISCRASESVDSYGNSFMHWYQQKPGQPPKLLIYRASNLESGIPARFSGSGSRTDFTLTINPVEADDVATYYCHQSNEEYTFGGGTKLEIK
notes: Murine monoclonal antibody; murine IgG1 was used as its isotypic control; also called Ab2.7; Ab 2.7
B3: antibody 23F11 (antibody, V domains shown)
VH: QVQLQQSGPGLVKPSQTLSLTCAISGDSVSSNSAAWNWIRQSPSRGLEWLGRTYYRSKWFNDYAVSVQSRITINPDTSKNQFSLQLNSVTPEDTAVYYCARGIVFSYAMDVWGQGTTVTVSS
VL: NFMLTQPHSVSESPGKTVTISCTRSSGSIASYYVQWYQQRPGSSPTTVIYEDSQRPSGVPDRFSGSIDSSSNSASLTISGLKTEDEADYYCQSYDSSNVVFGGGTKLTVL
notes: Human antibody
B4: antibody 18B11 (antibody, V domains shown)
VH: QVQLQQWGAGPLKPSETLSLTCAVYNGSFSGYYWSWIRQPPGKGLEWIGDINHSGNTKYNPSLKSRVTISVDTSKNQFSLKLSSVTAADTAVYYCARGDFWSGFDWFDPWGQGTLVTVSS
VL: QSALTQPASVSGSPGQSITISCTGTSSNVGSYNLVSWYQQHPGKAPKLMISEVSKRPSGLSNRFSGSKSGNTASLTISGLQAEDEADYYCCSYAGSSTLIFGGGTKLTVL
notes: Human antibody from Xenomouse IgG2 or IgG4 mice; also called 181311
B5: human hepcidin (mature, 25 amino acids) (peptide)
peptide: DTHFPICIFCCGCCHRSKCGMCCKT
modifications: disulfide (positions not given here); also: mono-biotinylated in some assays, site not given here
notes: the form is named in each assay field; also called rhuHepc; rhHepc
B6: antibody 1S1 (antibody, human IgG2, kappa, V domains shown)
VH: QVQLVQSGDEVKKPGASVKVSCKASGYTFIKYGISWVRQAPGQGLEWMGWIGAFNGNTDYARNLQARVTMTTDTSTSTAYMELRSLRSDDTAVYYCAREGWNDDYFSGLDVWGQGTTVTVSS
VL: EIVLTQSPGTLSLSPGERATLSCRASQSVSSNYLAWYQQKPGQAPRLLIYGASSRATGIPDRFSGSGSGTDFTLIISRLEPEDFVVYYCQQYGSSLTFGGGTKVEIKR
notes: Human antibody; also called Ab 1S1

What was measured:
[1] = molecular target: B5; experiment: BIAcore, recombinant human hepcidin immobilised on a CM5 chip, 50 nM antibody bound at pH 7.4, dissociation buffers of pH 7.4, 6 and 5.5 (curves not labelled by pH)
Protocol: (§1) Off-rate analysis of dissociation at different pHs was also performed. A slow off-rate is expected to predict increased binding interaction over a longer period of time, while a faster off-rate is expected to predict decreased binding interaction. For example, a faster off-rate at lower pH is expected to predict greater release of antigen at lower pH. Solution equilibrium binding analysis was performed using BIAcore to study the off-rates of antibodies 1S1, 1S3, 2.7, 18B11, 23F11 and 26F11 with recombinant human hepcidin (SEQ ID NO: 9).
Immobilization of recombinant human hepcidin (rhuHepc) to a BIAcore sensor chip surface was performed according to manufacturer's instructions at a flow rate 10 μL/min of running buffer (DPBS: Dulbecco's Phosphate Buffer Salinel X, no CaCl or MgCl, with 0.005% Biacore surfactant P-20). The carboxylated matrix of the sensor chip was first activated with a 60 μL injection of a mixture containing 0.2 M EDC(N-ethyl-N-(dimethylamine-propyl)carbodiimide in water, from BIAcore) and 0.05M NHS (N-hydroxysuccinimide in water, from Biacore). 55 μL of recombinant human hepcidin (1 μg/ml in 10 mM Na-acetate pH4.0) was injected to immobilize onto the sensor chip. The excess reactive groups of the sensor chip were deactivated with an injection of 60 μL of ethanolamine (1.0M, from Biacore).
After rhuHepc was immobilized on the CM5 chip with low density, 50 nM of antibodies 1S1, 1S3, 2.7, 18B11, 23F11 and 26F11 were injected over and bound the rhuHepc surface at pH 7.4. Dissociation buffers with pH 7.4, pH6 and pH 5.5 were run over the bound surface. The dissociation curves were obtained.

[2] = molecular target: B5; experiment: sandwich ELISA built from 1S1 and 23F11 (one curve for the pair of antibodies), hepcidin titrated; the axis gives hepcidin levels before a 50-fold pre-dilution
mouse hepcidin = molecular target: T1, mouse hepcidin; experiment: competition ELISA
[3] = molecular target: B5; experiment: KinExA solution equilibrium, human hepcidin-coated beads
Protocol: SA-Sepharose beads were pre-coated with biotinylated human hepcidin (SEQ ID NO: 9) and blocked with BSA according to manufacturer's instructions. Antibodies and hepcidin were diluted in PBS/0.1% BSA/0.05% NaN₃ buffer. Fixed concentrations of antibodies 15E1, 15E1 W52H, 15E1 A99H, 15E1 N521-1, 15E1 A107H and 18B11 were incubated with various concentrations of human hepcidin at room temperature for 8 hours before being run through the human hepcidin-coated beads. The amount of the bead-bound antibody was quantified by fluorescently (Cy5)-labeled goat anti-murine-IgG (H+L) antibody (Jackson Immuno Research, West Grove, Pa.). The binding signal is proportional to the concentration of free antibody at equilibrium. Dissociation equilibrium constant (KD) was obtained from nonlinear regression of the competition curves using a dual-curve one-site homogeneous binding model (KinExATM Pro software).

[4] = molecular target: B5; experiment: antibody at 1:250 dilution; KinExA / BIAcore named in the paragraph
[5] = molecular target: B5; experiment: ELISA, mono-biotinylated human hepcidin on Neutravidin plate, pH 6.0
Protocol: (§2) Differential pH binding of the antibodies listed above in Table 3 was then determined by ELISA. 50 μL of Neutravidin (Pierce) at 8 μg/mL in 1×PBS was coated upon a Nunc Maxisorp 384-well plate, and incubated at 37° C. for 1 hr. After blocking the wells with 0.1% BSA/PBS/0.05% Tween20 for 1 hour at room temperature, plates were washed six times with PBS/0.05% Tween20. 25 μL of mono-biotinylated hepcidin at 50 ng/mL in 0.1% BSA/PBS/0.05% Tween20 was added to the 384-well plate, and incubated at room temperature for 1 hour. The plates were next washed six times with PBS/0.05% Tween20. Starting hepcidin antibody concentrations were normalized to 1 μg/mL for pH 5.5 and 6.0 conditions and to 100 ng/mL for pH 7.4 conditions. The hepcidin antibodies were serially diluted 3-fold in PBS/1% NFDM pH 7.4 and 4-fold in PBS/1% NFDM pH 6.0 and 5.5. The dilutions and titrations were performed in polypropylene 96-well dilution plates, and then were transferred in duplicate to a Neutravidin-coated 384-well plate. The biotinylated hepcidin and antibodies were incubated for 2 hours at room temperature. The plate was next washed six times with PBS/0.05% Tween20. 25 μL it of goat anti-huIgG-horseradish peroxidase at a 1:7000 dilution in 0.1% BSA/PBS/0.05% Tween20 was next added to each well of the assay plate. The plate was finally washed six times in PBS/0.05% Tween20. Enhanced K-Blue 3,3′,5,5′-Tetramethylbenzidine (TMB) Substrate (Neogen) was added and the reaction stopped using 1 M H₃PO₄ after 10 minutes of incubation at room temperature. The absorption was measured at 450 nm on a plate reader. Binding data were analyzed by non-linear regression analysis (sigmoidal dose-response, variable slope) to generate EC₅₀ values using GraphPad Prism® software. […] Double combinations of these mutants were made.

[6] = molecular target: B5; experiment: ELISA, mono-biotinylated human hepcidin on Neutravidin plate, pH 7.4
Protocol: as §2

[7] = molecular target: B5; experiment: BIAcore, rhuHepc immobilised on CM5 chip, dissociation buffers of pH 7.4, 6 and 5.5; dissociation buffer pH 7.4
Protocol: as §1
Immobilization of recombinant human hepcidin (rhuHepc) to a BIAcore sensor chip surface was performed according to manufacturer's instructions at a flow rate 10 μL/min of running buffer (DPBS: Dulbecco's Phosphate Buffer Salinel X, no CaCl or MgCl, with 0.005% Biacore surfactant P-20). The carboxylated matrix of the sensor chip was first activated with a 60 μL injection of a mixture containing 0.2 M EDC(N-ethyl-N-(dimethylamine-propyl)carbodiimide in water, from BIAcore) and 0.05M NHS (N-hydroxysuccinimide in water, from Biacore). 55 μL of recombinant human hepcidin (1 μg/ml in 10 mM Na-acetate pH4.0) was injected to immobilize onto the sensor chip. The excess reactive groups of the sensor chip were deactivated with an injection of 60 μL of ethanolamine (1.0M, from Biacore). […]

murine antibody 2.7 [8] = molecular target: B2; experiment: competitive binding assay, luminescence, standards in rabbit serum: unlabelled hepcidin against biotinylated human hepcidin (0.25 nM) for Ab2.7
Protocol: (§3) Hepcidin levels were determined using hepcidin standards of varying concentrations (from 1.4-300 ng/ml) spiked into buffer (5% BSA:I-block), rabbit serum, or pooled human serum. Hepcidin was added to equal volumes of 40 ng/mL of Ab2.7 and incubated for 120 minutes. 25 μl/well of mixed solution was added to Black half area plates coated with 1-2 μg/mL G×M capture antibody. 25 μL/well of biotinylated hepcidin was added at 0.25 nM. The plate was covered with plate film sealer and incubated at room temperature (25° C.) on a plate shaker at around <200 RPM for around 60 minutes. The plate was washed and then 50 μL/well of Poly horseradish peroxidase amplification reagent at 1:2000 was added. The plate was allowed to sit for 30 minutes and was then washed with a plate washer using PBS or KPL buffer 6 times. The plate was patted dry and a luminescent substrate (Femto or Pico) was quickly added. The plate was read with luminometer (ex: Lmax 340) for 1 second using Femto or Pico Substrate. […] (FIG. 18).

murine antibody 2.7 [9] = molecular target: B2; experiment: competitive binding assay, luminescence, standards in buffer (5% BSA: I-block): unlabelled hepcidin against biotinylated human hepcidin (0.25 nM) for Ab2.7
Protocol: as §3

murine antibody 2.7 [10] = molecular target: B2; experiment: competitive binding assay, luminescence, standards spiked into pooled human serum (endogenous hepcidin present, not counted on the axis): unlabelled hepcidin against biotinylated human hepcidin (0.25 nM) for Ab2.7
Protocol: as §3

Binder: B1
binding result [1]: binds

Binder: B2
binding result [1]: binds

Binder: B3
EC50 (read off the curve) [2]: ~100 ng/mL

Binder: B4
binding result (mouse hepcidin): no binding
Kd [3]: 7.4 nM
fold reduction in affinity at pH 6 compared to pH 7.4 [4]: ~10 fold
EC50 [5]: 244 ng/mL
EC50 [6]: 2.7 ng/mL
koff [7]: > 0.01 s⁻¹

Binder: B5
IC50 (read off the curve) (murine antibody 2.7 [8]): ~7 ng/mL
IC50 (read off the curve) (murine antibody 2.7 [9]): ~8 ng/mL
IC50 (read off the curve) (murine antibody 2.7 [10]): ~10 ng/mL

Binder: B6
EC50 (read off the curve) [2]: ~100 ng/mL
